# Experimental data: patent publication US8173668B1 (Alcon Research, Ltd., priority 2007, dated 2012)
# T1: B2-receptors in h-NPE cells (Homo sapiens, UniProt P30411)
# T1 construct: B2-receptor proteins in h-TM, h-CM and h-NPE cells; endogenous in cells; host or cells: human trabecular meshwork (h-TM), human ciliary muscle (h-CM) and human non-pigmented ciliary epithelial (h-NPE) cells
# T1 sequence (P30411 1-391): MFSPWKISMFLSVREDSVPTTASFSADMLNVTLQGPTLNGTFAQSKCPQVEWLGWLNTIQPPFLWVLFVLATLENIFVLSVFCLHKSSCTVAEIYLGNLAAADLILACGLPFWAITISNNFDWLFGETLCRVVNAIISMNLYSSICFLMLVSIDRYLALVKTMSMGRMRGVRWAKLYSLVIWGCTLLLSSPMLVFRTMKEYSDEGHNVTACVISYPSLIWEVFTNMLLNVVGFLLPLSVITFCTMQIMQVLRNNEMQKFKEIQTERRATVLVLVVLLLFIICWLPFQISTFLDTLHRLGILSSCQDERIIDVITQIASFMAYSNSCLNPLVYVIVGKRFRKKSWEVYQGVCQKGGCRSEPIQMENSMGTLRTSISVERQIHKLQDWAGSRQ
# T2: B2-receptors in h-CM cells (Homo sapiens, UniProt P30411)
# T2 construct: B2-receptor proteins in h-TM, h-CM and h-NPE cells; endogenous in cells; host or cells: human trabecular meshwork (h-TM), human ciliary muscle (h-CM) and human non-pigmented ciliary epithelial (h-NPE) cells
# T2 sequence (P30411 1-391): T1 sequence (P30411 1-391)
# T3: B2-receptors in h-TM cells (Homo sapiens, UniProt P30411)
# T3 construct: B2-receptor proteins in h-TM, h-CM and h-NPE cells; endogenous in cells; host or cells: human trabecular meshwork (h-TM), human ciliary muscle (h-CM) and human non-pigmented ciliary epithelial (h-NPE) cells
# T3 sequence (P30411 1-391): T1 sequence (P30411 1-391)
# T4: human bradykinin B2-receptor (human, UniProt P30411 1-391)
# T4 sequence (looked up): T1 sequence (P30411 1-391)
# B1: TGFβ2: cytokine transforming growth factor-β2 (protein, UniProt P61812 303-414, looked up)
# Transforming growth factor …: ALDAAYCFRNVQDNCCLRPLYIDFKRDLGWKWIHEPKGYNANFCAGACPYLWSSDTQHSRVLSLYNTINPEASASPCCVSQDLEPLTILYYIGKTPKIEQLSNMIVKSCKCS
# Legend:
# [1] = molecular target: T1, B2-receptors in h-NPE cells; assay: [Ca2+]i mobilization (FLIPR) in h-NPE cells, agonist mode; format: cell-based; settings: h-NPE cells; mean ± SEM; read-out: Intrinsic Activity (Emax, % max relative to BK)
# Method: (§1) On the day of the experiment, one vial of FLIPR Calcium Assay Kit dye is re-suspended in 50 mL of a FLIPR buffer consisting of Hank's Balanced Salt Solution (HBSS), 20 mM HEPES, and 2.5 mM probenecid, pH 7.4. Cells are loaded with the calcium-sensitive dye by addition of an equal volume (50 μL) to each well of the 96-well plate and incubated with dye for 1 h at 23° C. After this time, the test compound plate and cell plate are placed in the FLIPR instrument. At the beginning of an experimental run, a signal test is performed to check the basal fluorescence signal from the dye-loaded cells and the uniformity of the signal across the plate. The basal fluorescence is adjusted between 8000-12000 counts by modifying the exposure time, the camera F-stop, or the laser power. Instrument settings for a typical assay are the following: laser power 0.3-0.6 W, camera F-stop F/2, and exposure time 0.4 sec.
# (§2) Fluorescence data are collected in real-time at 1.0 sec intervals for the first 60 secs and at 6.0 sec intervals for an additional 120 secs. […] The data are then analyzed using an automated, iterative, sigmoidal curve-fitting computer program to obtain the potency and intrinsic activities of the test agents as previously described (Sharif et al. J. Pharmacol. Exp. Ther. 286: 1094-1102, 1998; Sharif et al. Invest. Ophthalmol. Vis. Sci. 39:2562-2571, 1998; Kelly et al. J. Pharmacol. Exp. Ther. 304: 238-245, 2003). The sources of materials and reagents for such assays can be found in the references cited above.
# [2] = molecular target: T2, B2-receptors in h-CM cells; assay: [Ca2+]i mobilization (FLIPR) in h-CM cells, agonist mode; format: cell-based; settings: h-CM cells; mean ± SEM; read-out: Intrinsic Activity (Emax, % max relative to BK)
# Method: as §1, §2
# [3] = molecular target: T3, B2-receptors in h-TM cells; assay: [Ca2+]i mobilization (FLIPR) in h-TM cells, agonist mode; format: cell-based; settings: HTM; h-TM cells; mean ± SEM; read-out: Intrinsic Activity (Emax, % max relative to BK)
# Method: as §1, §2
# [4] = tested on: conscious ocular hypertensive cynomolgus monkey eyes; assay: IOP response in lasered (hypertensive) eyes of conscious cynomolgus monkeys, topical ocular; format: in vivo; settings: for % Change in IOP: Table 10, 300 μg topical ocular
# Method: Intraocular pressure (IOP) is determined with an Alcon Pneumatonometer (Alcon Laboratories, Inc., Fort Worth, Tex.) after light corneal anesthesia with 0.1% proparacaine. Right eyes are hypertensive as a result of laser trabeculoplasty. After a baseline IOP measurement, test compound is instilled in the right eyes only of 8-10 cynomolgus monkeys. Vehicle is instilled in the right eyes of 5-6 additional animals. Subsequent IOP measurements are taken at 1, 3, and 6 hours. IOP measurements are also taken on left eyes (normotensive and untreated) at each of these time points. The percent change in IOP from baseline is determined for each animal for every IOP measurement (Sharif et al. J. Ocular Pharmacol. Ther. 17: 305-317, 2001; May et al., J Pharmacol Exp Ther. 306: 301-309, 2003; Sharif et al. Invest. Ophthalmol. Vis. Res. 47: 4001-4010, 2006). Group mean and standard error of the mean (SEM) are calculated for each time point. […] In cases where the compound of invention has poor ocular bioavailability, the compound may need to be administered intracamerally or intravitreally in order to observe the IOP-lowering efficacy.
# The IOP-lowering effect was slow to develop but significant IOP reduction was observed even 3 hours post-dosing with maximum ocular hypotension observed 16-48 hours post-dosing (Tables 6-8; FIGS. 3b-5).
# [5] = molecular target: human bradykinin B2-receptor (human) (UniProt P30411); assay: cell-based or functional assay
# [6] = molecular target: T4, human bradykinin B2-receptor; assay: cell-based or functional assay
# [7] = tested on: B1-receptor mRNA; assay: Microarray analysis of B1-receptor mRNA in TGFβ2-treated human TM cells; format: cell-based; settings: Glaucomatous h-TM Cells, mean ± SEM
# [8] = tested on: B2-receptor mRNA; assay: Microarray analysis of B2-receptor mRNA in TGFβ2-treated human TM cells; format: cell-based; settings: mean ± SEM
molecule,measurement,setting,value
CSCC[C@H](N)C(=O)N[C@@H](CCCCN)C(=O)N[C@@H](CCCNC(=N)N)C(=O)N1CCC[C@H]1C(=O)N1CCC[C@H]1C(=O)NCC(=O)N[C@@H](Cc1ccccc1)C(=O)N[C@@H](CO)C(=O)N1CCC[C@H]1C(=O)N[C@@H](Cc1ccccc1)C(=O)N[C@@H](CCCNC(=N)N)C(=O)O [Met-Lys-BK],Emax,[1],77%
same,Emax,[2],110%
same,Emax,[3],111%
N=C(N)NCCC[C@H](NC(=O)[C@H](Cc1ccccc1)NC(=O)[C@@H]1CCCN1C(=O)[C@H](CO)NC(=O)[C@H](Cc1ccccc1)NC(=O)CNC(=O)[C@@H]1CCCN1C(=O)[C@@H]1CCCN1C(=O)[C@H](CCCNC(=N)N)NC(=O)[C@@H](N)CCCCN)C(=O)O [Lys-BK],Emax,[1],90%
same,Emax,[2],115%
same,Emax,[3],115%
"CCCC[P+](CCCC)(CCCC)Cc1ccc(NC(=O)[C@H](Cc2ccc3ccccc3c2)NC(=NC2CCCCC2)NC2CCCCC2)cc1.[Cl-] [WIN-64338, reference compound]",modulation of IOP,[4]; 300 μg topically administered,failed to modulate IOP
same,% Change in IOP,[4]; Dose 1/1 hr,1.7 ± 1.6%
same,% Change in IOP,[4]; Dose 1/3 hr,−10.4 ± 2.8%
same,% Change in IOP,[4]; Dose 1/6 hr,1.3 ± 1.3%
Hyp^3-BK (Arg-Pro-Hyp-Gly-Phe-Ser-Pro-Phe-Arg) (peptide),"[Ca2+]i mobilization in h-CM cells: Intrinsic Activity (Emax, % max relative to BK)",[5],105%
same,"[Ca2+]i mobilization in h-NPE cells: Intrinsic Activity (Emax, % max relative to BK)",[5],93%
same,[Ca2+]i mobilization in h-NPE cells: Potency (EC50; nM),[5],6 nM
same,"[Ca2+]i mobilization in h-TM cells: Intrinsic Activity (Emax, % max relative to BK)",[5],110%
same,[Ca2+]i mobilization in h-TM cells: Potency (EC50; nM),[5],0.9 nM
MKRPPGFSPFR [Met-Lys-BK (Met-Lys-Arg-Pro-Pro-Gly-Phe-Ser-Pro-Phe-Arg)],"[Ca2+]i mobilization in h-CM cells: Intrinsic Activity (Emax, % max relative to BK)",[6],110%
same,[Ca2+]i mobilization in h-CM cells: Potency (EC50; nM),[6],16.1 nM
same,"[Ca2+]i mobilization in h-NPE cells: Intrinsic Activity (Emax, % max relative to BK)",[6],77%
same,[Ca2+]i mobilization in h-NPE cells: Potency (EC50; nM),[6],125 nM
same,"[Ca2+]i mobilization in h-TM cells: Intrinsic Activity (Emax, % max relative to BK)",[6],111%
same,[Ca2+]i mobilization in h-TM cells: Potency (EC50; nM),[6],6.5 nM
KRPPGFSPFR [Lys-BK (Lys-Arg-Pro-Pro-Gly-Phe-Ser-Pro-Phe-Arg)],"[Ca2+]i mobilization in h-CM cells: Intrinsic Activity (Emax, % max relative to BK)",[6],115%
same,[Ca2+]i mobilization in h-CM cells: Potency (EC50; nM),[6],3.2 nM
same,"[Ca2+]i mobilization in h-NPE cells: Intrinsic Activity (Emax, % max relative to BK)",[6],90%
same,[Ca2+]i mobilization in h-NPE cells: Potency (EC50; nM),[6],19.6 nM
same,"[Ca2+]i mobilization in h-TM cells: Intrinsic Activity (Emax, % max relative to BK)",[6],115%
same,[Ca2+]i mobilization in h-TM cells: Potency (EC50; nM),[6],1.9 nM
B1,Normalized Levels of B1-receptor mRNA (GC-RMA),[7]; after 1.5 hr,1.54 ± 0.09
same,Normalized Levels of B1-receptor mRNA (GC-RMA),[7]; after 16 hr,0.53 ± 0.05
same,Normalized Levels of B2-receptor mRNA (GC-RMA),"[8]; Glaucomatous h-TM Cells, after 1.5 hr",0.97 ± 0.06
same,Normalized Levels of B2-receptor mRNA (GC-RMA),"[8]; Glaucomatous h-TM Cells, after 16 hr",0.24 ± 0.06
same,Normalized Levels of B2-receptor mRNA (GC-RMA),"[8]; Normal h-TM Cells, after 1.5 hr",0.68 ± 0.05
same,Normalized Levels of B2-receptor mRNA (GC-RMA),"[8]; Normal h-TM Cells, after 16 hr",0.14 ± 0.11
